# According to ChEMBL document CHEMBL1275444, “Fitness trade-offs in blaTEM evolution” (2008):
# B1: Beta-lactamase TEM-1 (Escherichia coli), Q4GY26 (protein)
# chain: MSIQHFRVALIPFFAAFCLPVFAHPETLVKVKDAEDQLGARVGYIELDLNSGKILESFRPEERFPMMSTFKVLLCGAVLSRVDAGQEQLGRRIHYSQNDLVEYSPVTEKHLTDGMTVRELCSAAITMSDNTAANLLLTTIGGPKELTAFLHNMGDHVTRLDRWEPELNEAIPNDERDTTMPAAMATTLRKLLTGELLTLASRQQLIDWMEADKVAGPLLRSALPAGWFIADKSGAGERGSRGIIAALGPDGKPSRIVVIYTTGSQATMD
# Substrate: CC1(C)S[C@@H]2[C@H](NC(=O)[C@H](N)c3ccccc3)C(=O)N2[C@H]1C(=O)O
# Conditions: Escherichia coli
# Description: Ratio of Kcat to Km for Escherichia coli Beta-Lactamase TEM-1
protein,measurement,value
B1,kcat/Km,2.8 ×10⁷ /M/s
